Test results from patent US20210284724A1 (I MAB BIOPHARMA US, published 2021).
Residue numbers refer to the chain shown, from its start.

B1: 348B10B1 (antibody, V domains shown)
VH: EVQLQQSGPELVKPGASVKISCKTSGYTFTEYIMHWVKQSHGRSLEWIGGINPDNGDTTYNQKFKGKATLTVDKSSTTAYMELRSLTSEDSAVYYCAGGVLDYWGQGTSVTVSS
VL: not shown
notes: Hybridoma mAb
B2: 360A3D4E3 (antibody, V domains shown)
VH: B1 VH with G42E, N52H, K65T
VL: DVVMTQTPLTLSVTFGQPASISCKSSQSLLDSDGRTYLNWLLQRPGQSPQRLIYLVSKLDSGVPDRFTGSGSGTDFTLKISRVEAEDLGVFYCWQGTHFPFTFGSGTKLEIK
notes: Hybridoma mAb
B3: 339H3E2 (antibody, V domains shown)
VH: B1 VH with D54N, D57G, T77S, L101M
VL: not shown
notes: Hybridoma mAb
B4: 1H3A11 (antibody, V domains shown)
VH: EVQLVESGGGLVKPGGSLKLSCAASGFTFSSYAMSWVRQTPEKRLEWVATISDGGSDTYYPDNVKGRFTISRDNAKNNLYLQMSHLKSEDTAMYYCARDYYGSSYEDYAMDYWGQGTSVTVSS
VL: DIQMTQSPSSLSASLGGKVTITCKASQDINKYITWYQHKPGKGPRLLIHYTSTLQPGIPSRFSGSGSGRDYSFSISNLEPEDIATYYCLQYDNLYTFGGGTKLEIK
notes: Hybridoma mAb
B5: 368D6D10 (antibody, V domains shown)
VH: DVQLQESGPGLVKPSQSLSLTCTVTGYSITSDYAWNWIRQFPGNKLEWMGYISYSGSTSYNPSLKSRISITRDTSKNQFFLQLNSVTTEDTATYYCVAGHFDYWGQGTTLTVSS
VL: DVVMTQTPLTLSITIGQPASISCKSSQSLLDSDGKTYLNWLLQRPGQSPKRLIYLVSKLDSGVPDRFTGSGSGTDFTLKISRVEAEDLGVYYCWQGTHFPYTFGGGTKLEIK
notes: Hybridoma mAb
B6: 355A1F6 (antibody, V domains shown)
VH: B5 VH with N36S, G56D, T88A, V97A, T109I
VL: not shown
notes: Hybridoma mAb
B7: 348E12F12 (antibody, V domains shown)
VH: B5 VH with S57D
VL: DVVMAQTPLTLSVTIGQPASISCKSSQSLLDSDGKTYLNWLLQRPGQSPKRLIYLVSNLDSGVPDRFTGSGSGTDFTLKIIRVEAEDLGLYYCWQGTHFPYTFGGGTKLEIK
notes: Hybridoma mAb
B8: 397C3B3 (antibody, V domains shown)
VH: B5 VH with T71N
VL: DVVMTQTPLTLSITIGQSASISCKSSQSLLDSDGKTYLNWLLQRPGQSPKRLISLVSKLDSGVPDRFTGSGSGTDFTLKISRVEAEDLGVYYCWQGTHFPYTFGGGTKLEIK
notes: Hybridoma mAb
B9: 367F1C2 (antibody, V domains shown)
VH: B5 VH with Q40H, S55T, T58S, T88S, Q106P
VL: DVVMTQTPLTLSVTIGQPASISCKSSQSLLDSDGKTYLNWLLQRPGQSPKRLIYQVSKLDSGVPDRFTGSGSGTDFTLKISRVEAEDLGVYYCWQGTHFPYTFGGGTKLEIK
notes: Hybridoma mAb
B10: 353F9C4 (antibody, V domains shown)
VH: B5 VH with N36S, S53T, G56D, T88A, V97A, T109I
VL: not shown
notes: Hybridoma mAb
B11: 414D10F5 (antibody, V domains shown)
VH: EVQLAESGGGLVQPGRSLKLSCSASGFTFSDYYMAWFRQAPPKGLEWVASISYDGGDSFYRDSVKGRFTISRDNAKSSLYLQMDSLRSEDTATYYCTTEEDYSGSFPDYWGQGVMVTVSS
VL: DIQMTQSPSFLSASVGDRVTINCKASQNINKYLNWYQQKLGEAPKRLIYDTNNLQAGIPSRFSGSGSGTDYTLTINSLQPEDFATYFCLQHNSLYTFGGGTKLELK
notes: Hybridoma mAb
B12: 178B2E8 (antibody, V domains shown)
VH: EVKLVESEGGLVQPGSSMKLSCTASGFTFTDYYMTWVRQVPEKGLEWVANINYDGSRTNYLDSLKSRFIISRDNAKNILYLQMSSLKSEDTATYYCARDGNYHFYGMDYWGQGTSVTVSS
VL: DFVLTQSHKFMSTSVGDRVSITCKASQDVSTAVAWYQQKPGQSPQLLIYWASTRHTGVPDRFTGSGSGTDYTLTISSVQAEDLALYYCQQHYSTPWTFGGGTKLEIK
notes: Hybridoma mAb
B13: 430D9B3 (antibody, V domains shown)
VH: QVTLKESGPEILQPSQTLSLTCTFSGFSLSPYGMGVGWIRQPSGKGLEWLANIWWDDDKYYNPSLINRLTISKDTSNNQAFLKITNVDTTDSATYYCVRSELVMPYVPFDYWGQGVMVTVSS
VL: DIQMTQSPSSMSASLGDRVTITCQASQDIENDLIWFQQKPGKSPRPLIYYATNLANGVPSRFSGRRSESNYSLTISSLESEDMADYHCLQFKQYPYTFGAGTKLELK
notes: Hybridoma mAb
B14: 423A6H6 (antibody, V domains shown)
VH: B13 VH with E10G, P31T, I66Q, T90A, S92T, V98A, V103I, M117R
VL: B13 VL with E30D, D32H, L47M, R65S, E68G, N70D, Y96F, A100S, L106I
notes: Hybridoma mAb
B15: 402H2G12 (antibody, V domains shown)
VH: B13 VH with E10G, P31T, I66Q, T85N, T90A, S92T, V98A, V103I, M117R
VL: B13 VL with E30D, D32H, L47M, R65S, E68G, N70D, Y96F, A100S, L106I
notes: Hybridoma mAb
B16: 445A6G7 (antibody, V domains shown)
VH: B13 VH
VL: B13 VL with E30G
notes: Hybridoma mAb
B17: 416C9H8 (antibody, V domains shown)
VH: B13 VH
VL: B13 VL with I34V, K42R, N70D
notes: Hybridoma mAb
B18: 424H7F2 (antibody, V domains shown)
VH: B13 VH with S19T
VL: B13 VL with S72A
notes: Hybridoma mAb; also called surrogate anti-CXCL13 antibody
B19: 329F2E1 (antibody, V domains shown)
VH: EVKLLQSGGGLVQPGGSLKLSCAASGIDFSRYWMSWVRRAPGKGLEWIGEINPDSSTINYAPSLKDKFIISRDNAKNTLYLQMSKVRSEDTALYYCARQDDYDYYAMDYWGQGTSVTVSS
VL: DIVMTQSHKFMSTSVGDRVSITCKASQDVSTGVAWYQQKPGQSPKLLIYSASYRYTGVPDRFTGSGSRTDFTFTISSVQTEDPAVYYCHQYYTIPLTFGAGTELELK
notes: Hybridoma mAb
B20: 71F4A3 (antibody, V domains shown)
VH: B19 VH with D103E
VL: B19 VL with F10S, S30N, Q37R, R68G, T80A, P83L, H89Q, T93S, I94T, E103K
notes: Hybridoma mAb
B21: 21H12D9-VH3VL3 (Fab, V domains shown)
VH: QVQLVQSGAEVVKPGASVKVSCKASGYTFTDYYMNWVRQAPGQGLEWIGVINPNNGGTTYKEKFKGRATLTVDTSISTAYMELSRLRSDDTAVYYCARDDYDAGYWGQGTLVTVSS
VL: DIQMTQSPSSVSTSVGDRVTITCKASQNVDTAVAWYQQKPGKAPKLLIYSASHRYTGVPSRFSGSGSGTDFTLTISSVQPEDFATYYCQQYTDFPLTFGQGTRLEIK
notes: Humanized Fab, human gamma 1 and kappa constant domains; also called 21VH12D9-VH3VL3

biological target: T1, human CXCL13 (human, UniProt O43927 23-109); assay: ELISA, coated antigen
T1 construct: also called huCXCL13; rhCXCL13
T1 sequence (looked up): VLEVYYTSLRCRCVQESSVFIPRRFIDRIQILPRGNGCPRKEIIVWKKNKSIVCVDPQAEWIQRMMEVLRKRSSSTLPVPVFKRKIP

Row | Binder | EC50
1 | B1 | 0.0124 µg/mL
2 | B2 | 0.00664 µg/mL
3 | B3 | 0.0388 µg/mL
4 | B4 | 0.0633 µg/mL
5 | B5 | 0.0864 µg/mL
6 | B6 | 0.0943 µg/mL
7 | B7 | 0.0636 µg/mL
8 | B8 | 0.344 µg/mL
9 | B9 | 0.0668 µg/mL
10 | B10 | 0.135 µg/mL
11 | B11 | 0.0104 µg/mL
12 | B12 | 0.42 µg/mL
13 | B13 | 0.0265 µg/mL
14 | B14 | 1.56 µg/mL
15 | B15 | 0.00578 µg/mL
16 | B16 | 2.91 µg/mL
17 | B17 | 5.84 µg/mL
18 | B18 | 0.0109 µg/mL
19 | B19 | 0.0166 µg/mL
20 | B20 | 0.0266 µg/mL

biological target: T2, cynomolgus CXCL13 (cynomolgus, UniProt H6WS58 23-109); assay: ELISA, coated antigen
T2 construct: also called cynoCXCL13; Cyno CXCL13
T2 sequence: T1 sequence (looked up) with S8H, L32S, I52V, M65I, V68M, R72K, L77P

Row | Binder | EC50 | binding result
21 | B1 | 0.0166 µg/mL | –
22 | B2 | 0.0178 µg/mL | –
23 | B3 | 0.0319 µg/mL | –
24 | B4 | 0.145 µg/mL | –
25 | B5 | 0.14 µg/mL | –
26 | B6 | 0.154 µg/mL | –
27 | B7 | 0.0765 µg/mL | –
28 | B8 | 0.401 µg/mL | –
29 | B9 | 0.0557 µg/mL | –
30 | B10 | 0.172 µg/mL | –
31 | B11 | 0.019 µg/mL | –
32 | B12 | – | no binding
33 | B13 | – | no binding
34 | B14 | – | no binding
35 | B15 | – | no binding
36 | B16 | – | no binding
37 | B17 | – | no binding
38 | B18 | – | no binding
39 | B19 | 0.0125 µg/mL | –
40 | B20 | 1.01 µg/mL | –

biological target: T3, mouse CXCL13 (mouse, UniProt O55038 22-109); assay: ELISA, coated antigen
T3 construct: also called rmCXCL13
T3 sequence (looked up): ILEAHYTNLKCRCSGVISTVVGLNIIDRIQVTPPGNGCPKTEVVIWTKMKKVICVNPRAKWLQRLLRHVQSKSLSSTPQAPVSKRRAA

Row | Binder | binding result | EC50
41 | B1 | no binding | –
42 | B2 | no binding | –
43 | B3 | no binding | –
44 | B4 | no binding | –
45 | B5 | no binding | –
46 | B6 | no binding | –
47 | B7 | no binding | –
48 | B8 | no binding | –
49 | B9 | no binding | –
50 | B10 | no binding | –
51 | B11 | no binding | –
52 | B12 | no binding | –
53 | B13 | – | 0.0547 µg/mL
54 | B14 | – | 0.248 µg/mL
55 | B15 | – | 0.0357 µg/mL
56 | B16 | – | 1.23 µg/mL
57 | B17 | – | 1.97 µg/mL
58 | B18 | – | 0.0121 µg/mL
59 | B19 | no binding | –
60 | B20 | no binding | –

biological target: T1, human CXCL13; assay: SPR Biacore, off-rate ranking of Fabs

Row | Binder | Kd | koff | kon
61 | B21 | 1.47 nM | 0.00207 s⁻¹ | 1.41e+06 M⁻¹ s⁻¹

biological target: T1, human CXCL13; assay: SPR Biacore 8K, Fab over immobilised CXCL13
Procedure: Among all humanized Fab samples, 71F4A3-VH2VL1, 71F4A3-VH1VL1 (Hz71F4), 71F4A3-VH1VL2, 71F4A3-VH3VL1, 411A11E9-VH1VL4, 411A11E9-VH3VL4, 411A11E9-VH2VL4, 411A11E9-VH3VL2, 411A11E9-VH1VL2, 21H12D9-VH1VL1, 21H12D9-VH2VL2, 21H12D9-VH3VL3, 21H12D9-VH1VL2, 64C10G1-VH1VL3, 64C10G1-VH1VL4, 64C10G1-VH1VL1, 64C10G1-VH1VL2 were selected to test affinity by Biacore 8K. 10 mM HEPES, 150 mM NaCl, 3 mM EDTA, 0.05% Tween-20, pH 7.4 served as running buffer and 10 mM glycine-HCl, pH2.0 served as regeneration buffer. CXCL13 protein were immobilized on Sensor Chip CM5 using amine coupling method (immobilization level ˜250RU). The serial concentrations of Fab (0-20 nM) were injected over immobilized CXCL13 at the flow rate of 30 μl/min. The dissociation phases were 600s.

Row | Binder | Kd | koff | kon
62 | B21 | 1.22 nM | 0.00182 s⁻¹ | 1.49e+06 M⁻¹ s⁻¹

biological target: T1, human CXCL13; assay: cell-based blocking ELISA, CXCL13 to CHO-K1-CXCR5
Procedure: Splenocytes were electro-fused with mouse myeloma cell line SP2/0 cells and plated into 96-well culture plate. The hybridoma supernatants were tested by ELISA binding assay for anti-human CXCL13 binders. Supernatants of positive binding clones were screened for function in blocking of human CXCL13 binding to its […] CXCR5 by Cell-based receptor blocking ELISA assay. Briefly, 5×10⁴ CHO-K1-CXCR5 cells were plated in 96-well plate with 100 μl of culture medium and incubated at 37° C. overnight. Cells were fixed with 100 μl of 2% PFA at RT for 1 hr after washing with PBS for 1 time. Blocking was done with 1% BSA in PBST for 1 hr at RT. Supernatants were diluted with PBS and pre-incubated with equal volume of 0.3 μg/ml human CXCL13 for 30 min at RT. 100 μl of antibody-antigen complex was then transferred into each cell wells for 30 min at RT. The samples were washed with 1×PBST for 3 times and 100 μl of 3 μg/ml of human Mab5261 antibody was add into each well to capture human CXCL13 and anti-human Fc-HRP was used to indirectly detect human CXCL13 when it bound to CHO-K1-CXCR5 cells. […] Reading was done at […].
Those antibodies were purified from hybridoma supernatants by binding with Protein G column and characterized by ELISA binding assays and cell-based blocking ELISA assays. […] 11/20 clones bound to both human CXCL13 and cynomolgus CXCL13 appeared to completely block human CXCL13 to human CXCR5. 11 blockers bound to both huCXCL13 and cynoCXCL13 were produced as chimeric human IgG1 antibodies for further Characterization.

Row | Binder | IC50
63 | B4 | 10.1 µg/mL
64 | B11 | 1.14 µg/mL
65 | B13 | 3.85 µg/mL
66 | B14 | 8.96 µg/mL
67 | B15 | 8.72 µg/mL
68 | B16 | 14.9 µg/mL
69 | B17 | 8.46 µg/mL
70 | B18 | 1.1 µg/mL
71 | B19 | 0.615 µg/mL
72 | B20 | 3.02 µg/mL
